Experimental data taken from article PMC9599074, “Integration of Power-Free and Self-Contained Microfluidic Chip with Fiber Optic Particle Plasmon Resonance Aptasensor for Rapid Detection of SARS-CoV-2 Nucleocapsid Protein”.

Target: SARS-CoV-2 nucleocapsid protein (N-protein) (SARS-CoV-2, UniProt P0DTC9 1-419)
Test: FOPPR biosensor kinetics; 1x PBS pH 7.4, […]; temperature not stated
Settings: protein: commercial; chain copies: 2

Binder | Kd [nM]
NP-A48 (ssDNA, terminal amine (end not stated), coupled to carboxyl AuNP) DNA: GCTGGATGTCGCTTACGACAATATTCCTTAGGGGCACCGCTACATTGACACATCCAGC | 2.63
NP-A61 (ssDNA, terminal amine (end not stated), coupled to carboxyl AuNP) DNA: GCTGGATGTTGACCTTTACAGATCGGATTCTGTGGGGCGTTAAACTGACACATCCAGC | 5.02
